In assay [1] the target is T1, mouse CACNG1 (mouse, UniProt O70578 1-223).
T1 construct: In the functional entries it is the endogenous protein on muscle of D2-mdx mice or on C2C12 myotubes
T1 sequence: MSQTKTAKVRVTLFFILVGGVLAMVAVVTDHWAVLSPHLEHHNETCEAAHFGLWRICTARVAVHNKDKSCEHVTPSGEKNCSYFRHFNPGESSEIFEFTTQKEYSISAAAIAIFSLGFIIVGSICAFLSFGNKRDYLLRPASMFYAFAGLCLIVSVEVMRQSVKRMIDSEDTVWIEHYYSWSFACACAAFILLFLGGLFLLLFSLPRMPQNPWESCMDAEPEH
Nature of the assay: no binding assay described; definition of the label.

The target of assay [2] is T1, mouse CACNG1. Nature of the assay: no binding assay described; descriptor in figure legend.
Assay [3] addresses T2, human CACNG1 (Calcium Voltage-Gaged Auxiliary Subunit Gamma 1) (human, UniProt Q06432 1-222).
T2 construct: In the transduction experiments it was expressed on 293 cells, human myotubes or muscle of humanized mice; also called hCACNG1; human CACNG1 protein
The assay is described as above.

T2 sequence (Q06432 whole entry): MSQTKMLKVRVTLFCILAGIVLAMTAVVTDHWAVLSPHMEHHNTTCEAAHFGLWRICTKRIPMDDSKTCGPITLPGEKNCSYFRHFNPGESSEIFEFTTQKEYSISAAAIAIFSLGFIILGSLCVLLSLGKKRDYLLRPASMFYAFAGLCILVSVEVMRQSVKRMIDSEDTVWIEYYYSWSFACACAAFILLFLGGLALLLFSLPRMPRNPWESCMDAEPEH

B1: CACNG1 mAb #1 (antibody, V domains shown)
VH: QVQLVESGGGVVQPGRSLRLSCTASGITFRNYGMHWVRQAPGKGLEWVAVMWYDGSNKYYADSVKGRFTISGDNSKVYLQMNSLRAEDTAVYYCARRGTIRTAAPFDYWGQGTLVTVSS
VL: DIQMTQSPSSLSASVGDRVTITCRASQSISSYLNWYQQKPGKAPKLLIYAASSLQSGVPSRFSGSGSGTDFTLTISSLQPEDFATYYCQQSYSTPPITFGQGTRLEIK
notes: On AAV particles the heavy chain was in a hIgG4US backbone, fused at its C-terminus to SpyCatcher and joined to SpyTag on the capsid; a Fab form was also used; also called anti-hCACNG1 mAb #1; anti-CACNG1 mAb #1
Turning to B1, the binding result with mouse CACNG1 [1] is recorded as “no binding”.

B2: CACNG1 mAb #5 (antibody, V domains shown)
VH: QVQLVESGGGVVQPGTSLRLSCAASGFTFSSYGMHWVRQAPGKGLEWVAVIWIDGSNKYYADSVKGRFTISRDNSKNTLYLQMNSLRAEDTAVYYCARRGGIVVAAPFDYWGQGTLVTVSS
VL: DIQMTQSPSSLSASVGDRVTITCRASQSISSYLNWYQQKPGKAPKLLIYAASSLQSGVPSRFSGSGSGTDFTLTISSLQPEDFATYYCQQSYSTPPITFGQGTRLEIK
notes: also called Antibody Designation 5; 14574/10783
On to B2, for which the binding result in the assay with mouse CACNG1 [1] was “no binding”.

B3: CACNG1 mAb #3 (antibody, V domains shown)
VH: QVQLVESGGGVVQPGRSLRLSCAASGFTFSTYGMHWVRQAPGKGLEWVAVIWHDGSDKYYVDSVKGRFSIARDNSKNTLYLQMNSLRVEDTGIYYCARRGIRGTVFDHWGLGTLVTVSS
VL: DIQMTQSPSTLSASVGDRVTLTCRASQSISNKLAWYQQKPGKAPNLLIYKASNLESGVPSRFSGSGSGTEFTLTISSLQPDDFATYYCQQYNSYSWTFGQGTKVEIK
notes: On AAV particles the heavy chain was fused at its C-terminus to SpyCatcher; also called Antibody Designation 3; 14572/10717
Take B3: the binding result (with mouse CACNG1 [2]; in assay [3]) was “binds” each time.
